Where a chain is given by its changes, count along the chain named. Numbers in names are those of the source.
B1: XPA23 heavy chain N104L (Fab, V domains shown)
VH: EVQLLESGGGLVQPGGSLRLSCAASGFTFSKYFMFWVRQAPGKGLEWVSVISPSGGMTRYADSVKGRFTISRDNSKNTLYLQMNSLRAEDTAVYYCARVGYGGLSDYWGQGTLVTVSS
VL: DIQMTQSPSSVSASVGDRLTIICRASQDINRWLAWYQQTPGNAPKLLIHSATSLQSGVPSRFSGSGSGTDFTLTINSLQPEDFATYYCQQADSFPLTFGGGTKVEIK
notes: Fab, periplasmic extract; also called C5A N104L
B2: XPA23 heavy chain S30G (Fab, V domains shown)
VH: B1 VH with S30G, L104N
VL: B1 VL
notes: Fab, periplasmic extract; also called C5A S30G
B3: XPA23 heavy chain P53A (Fab, V domains shown)
VH: B1 VH with P53A, L104N
VL: B1 VL
notes: Fab, periplasmic extract; also called C5A P53A
B4: XPA23 heavy chain R59G (Fab, V domains shown)
VH: B1 VH with R59G, L104N
VL: B1 VL
notes: Fab, periplasmic extract; also called C5A R59G
B5: XPA23 heavy chain R59L (Fab, V domains shown)
VH: B1 VH with R59L, L104N
VL: B1 VL
notes: Fab, periplasmic extract; also called C5A R59L
B6: XPA23 heavy chain R59P (Fab, V domains shown)
VH: B1 VH with R59P, L104N
VL: B1 VL
notes: Fab, periplasmic extract; also called C5A R59P
B7: XPA23 heavy chain S54A (Fab, V domains shown)
VH: B1 VH with S54A, L104N
VL: B1 VL
notes: Fab, periplasmic extract; also called C5A S54A
B8: XPA23 heavy chain S52A (Fab, V domains shown)
VH: B1 VH with S52A, L104N
VL: B1 VL
notes: Fab, periplasmic extract; also called C5A S52A
B9: XPA23 heavy chain P53I (Fab, V domains shown)
VH: B1 VH with P53I, L104N
VL: B1 VL
notes: Fab, periplasmic extract; also called C5A P53I
B10: XPA23 heavy chain S105A (Fab, V domains shown)
VH: B1 VH with L104N, S105A
VL: B1 VL
notes: Fab, periplasmic extract; also called C5A S105A
B11: XPA23 heavy chain S30L (Fab, V domains shown)
VH: B1 VH with S30L, L104N
VL: B1 VL
notes: Fab, periplasmic extract; also called C5A S30L
B12: XPA23 heavy chain S30T (Fab, V domains shown)
VH: B1 VH with S30T, L104N
VL: B1 VL
notes: Fab, periplasmic extract; also called C5A S30T
B13: XPA23 heavy chain S52T (Fab, V domains shown)
VH: B1 VH with S52T, L104N
VL: B1 VL
notes: Fab, periplasmic extract; also called C5A S52T
B14: XPA23 heavy chain S52G (Fab, V domains shown)
VH: B1 VH with S52G, L104N
VL: B1 VL
notes: Fab, periplasmic extract; also called C5A S52G
B15: XPA23 heavy chain N104V (Fab, V domains shown)
VH: B1 VH with L104V
VL: B1 VL
notes: Fab, periplasmic extract; also called C5A N104V
B16: XPA23 heavy chain S54G (Fab, V domains shown)
VH: B1 VH with S54G, L104N
VL: B1 VL
notes: Fab, periplasmic extract; also called C5A S54G
B17: XPA23 heavy chain S54V (Fab, V domains shown)
VH: B1 VH with S54V, L104N
VL: B1 VL
notes: Fab, periplasmic extract; also called C5A S54V
B18: XPA23 heavy chain S54P (Fab, V domains shown)
VH: B1 VH with S54P, L104N
VL: B1 VL
notes: Fab, periplasmic extract; also called C5A S54P
B19: XPA23 heavy chain P53V (Fab, V domains shown)
VH: B1 VH with P53V, L104N
VL: B1 VL
notes: Fab, periplasmic extract; also called C5A P53V
B20: XPA23 heavy chain S30A (Fab, V domains shown)
VH: B1 VH with S30A, L104N
VL: B1 VL
notes: Fab, periplasmic extract; also called C5A S30A
B21: XPA23 heavy chain S52P (Fab, V domains shown)
VH: B1 VH with S52P, L104N
VL: B1 VL
notes: Fab, periplasmic extract; also called C5A S52P
B22: XPA23 heavy chain S52V (Fab, V domains shown)
VH: B1 VH with S52V, L104N
VL: B1 VL
notes: Fab, periplasmic extract; also called C5A S52V
B23: XPA23 heavy chain S54I (Fab, V domains shown)
VH: B1 VH with S54I, L104N
VL: B1 VL
notes: Fab, periplasmic extract; also called C5A S54I
B24: XPA23 heavy chain P53G (Fab, V domains shown)
VH: B1 VH with P53G, L104N
VL: B1 VL
notes: Fab, periplasmic extract; also called C5A P53G
B25: XPA23 heavy chain P53L (Fab, V domains shown)
VH: B1 VH with P53L, L104N
VL: B1 VL
notes: Fab, periplasmic extract; also called C5A P53L
B26: XPA23 heavy chain S30I (Fab, V domains shown)
VH: B1 VH with S30I, L104N
VL: B1 VL
notes: Fab, periplasmic extract; also called C5A S30I
B27: XPA23 heavy chain R59T (Fab, V domains shown)
VH: B1 VH with R59T, L104N
VL: B1 VL
notes: Fab, periplasmic extract; also called C5A R59T
B28: XPA23 heavy chain S54L (Fab, V domains shown)
VH: B1 VH with S54L, L104N
VL: B1 VL
notes: Fab, periplasmic extract; also called C5A S54L
B29: XPA23 heavy chain S54T (Fab, V domains shown)
VH: B1 VH with S54T, L104N
VL: B1 VL
notes: Fab, periplasmic extract; also called C5A S54T
B30: XPA23 heavy chain N104T (Fab, V domains shown)
VH: B1 VH with L104T
VL: B1 VL
notes: Fab, periplasmic extract; also called C5A N104T

The binders below were run against T1, IL-1β (UniProt P01584 117-269) (assay: Biacore, Fab periplasmic extract).
T1 construct: Antigen of XPA23

| Binder | fold difference in affinity against the original |
| --- | --- |
| B1 | 1.19 fold |
| B2 | 0.13 fold |
| B3 | 0.05 fold |
| B4 | 1.04 fold |
| B5 | 0.08 fold |
| B6 | 0.07 fold |
| B7 | 1 fold |
| B8 | 0.05 fold |
| B9 | 0.08 fold |
| B10 | 0.84 fold |
| B11 | 0.91 fold |
| B12 | 0.06 fold |
| B13 | 0.04 fold |
| B14 | 0.03 fold |
| B15 | 1.27 fold |
| B16 | 1.43 fold |
| B17 | 1 fold |
| B18 | 0.06 fold |
| B19 | 1.1 fold |
| B20 | 0.77 fold |
| B21 | 0.05 fold |
| B22 | 0.04 fold |
| B23 | 0.86 fold |
| B24 | 0.02 fold |
| B25 | 0.04 fold |
| B26 | 0.08 fold |
| B27 | 0.76 fold |
| B28 | 0.91 fold |
| B29 | 0.14 fold |
| B30 | 0.95 fold |
